# Assay results published in the supplement of paper PMC10567573.
# B1: RSPH3 (parent)
# chain: LELQRQREARKRALARKQAQEQLR
# Variants of: B1
# Assay: protein stability index of a GFP-peptide fusion (GPS, HEK-293T) (PSI 1-6); higher = more stable
# Conditions: c terminus: a fixed tail appended
# 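Further: lentivirally expressed fusions sorted by FACS into six bins by GFP to DsRed ratio, PSI derived from sequencing read proportions per bin multiplied by bin number.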
row,Variant,protein stability index
1,LELQRCREARKRALARKQAQEQLR,3.17
2,LELQRFREARKRALARKQAQEQLR,3.35
3,LELQRNREARKRALARKQAQEQLR,3.73
4,LELQRGREARKRALARKQAQEQLR,4.55
5,LELQRRREARKRALARKQAQEQLR,3.41
6,LELQRDREARKRALARKQAQEQLR,4.05
7,LELQRPREARKRALARKQAQEQLR,3.64
8,LELQRAREARKRALARKQAQEQLR,4.14
9,LELQRKREARKRALARKQAQEQLR,4.63
10,LELQREREARKRALARKQAQEQLR,4.46
11,LELQRLREARKRALARKQAQEQLR,3.33
12,LELQRHREARKRALARKQAQEQLR,2.96
13,LELQRVREARKRALARKQAQEQLR,3.37
14,LELQRWREARKRALARKQAQEQLR,4.26
15,LELQRIREARKRALARKQAQEQLR,2.98
16,LELQRYREARKRALARKQAQEQLR,3.71
17,LELQRTREARKRALARKQAQEQLR,3.87
18,LELQRSREARKRALARKQAQEQLR,3.76
19,LELQRQWEARKRALARKQAQEQLR,3.46
20,LELQRQCEARKRALARKQAQEQLR,3.87
21,LELQRQTEARKRALARKQAQEQLR,4.43
22,LELQRQVEARKRALARKQAQEQLR,4.02
23,LELQRQAEARKRALARKQAQEQLR,3.61
24,LELQRQGEARKRALARKQAQEQLR,4.52

row,Variant,protein stability index
1,LELQRQKEARKRALARKQAQEQLR,3.56
2,LELQRQYEARKRALARKQAQEQLR,3.85
3,LELQRQQEARKRALARKQAQEQLR,4.01
4,LELQRQSEARKRALARKQAQEQLR,4.36
5,LELQRQIEARKRALARKQAQEQLR,3.25
6,LELQRQDEARKRALARKQAQEQLR,4.49
7,LELQRQLEARKRALARKQAQEQLR,4.2
8,LELQRQFEARKRALARKQAQEQLR,4.1
9,LELQRQMEARKRALARKQAQEQLR,3.52
10,LELQRQNEARKRALARKQAQEQLR,4.08
11,LELQRQHEARKRALARKQAQEQLR,4.29
12,LELQRQEEARKRALARKQAQEQLR,4.31
13,LELQRQPEARKRALARKQAQEQLR,3.71
14,LEIQRQREARKRALARKQAQEQLR,3.74
15,LESQRQREARKRALARKQAQEQLR,4.14
16,LEKQRQREARKRALARKQAQEQLR,4.17
17,LERQRQREARKRALARKQAQEQLR,3.54
18,LEFQRQREARKRALARKQAQEQLR,3.81
19,LEGQRQREARKRALARKQAQEQLR,4.43
20,LEHQRQREARKRALARKQAQEQLR,4.42
21,LEPQRQREARKRALARKQAQEQLR,4.18
22,LEWQRQREARKRALARKQAQEQLR,3.52
23,LEYQRQREARKRALARKQAQEQLR,3.89
24,LETQRQREARKRALARKQAQEQLR,4.35

row,Variant,protein stability index
1,LEDQRQREARKRALARKQAQEQLR,4.14
2,LEMQRQREARKRALARKQAQEQLR,3.6
3,LEEQRQREARKRALARKQAQEQLR,5.04
4,LEAQRQREARKRALARKQAQEQLR,4.14
5,LENQRQREARKRALARKQAQEQLR,3.86
6,LECQRQREARKRALARKQAQEQLR,3.12
7,LEVQRQREARKRALARKQAQEQLR,4.29
8,LEQQRQREARKRALARKQAQEQLR,3.9
9,LELQRQREAIKRALARKQAQEQLR,3.22
10,LELQRQREAQKRALARKQAQEQLR,4.43
11,LELQRQREATKRALARKQAQEQLR,3.92
12,LELQRQREAVKRALARKQAQEQLR,3.38
13,LELQRQREAYKRALARKQAQEQLR,3.17
14,LELQRQREAAKRALARKQAQEQLR,4.57
15,LELQRQREASKRALARKQAQEQLR,4.2
16,LELQRQREAMKRALARKQAQEQLR,3.76
17,LELQRQREAWKRALARKQAQEQLR,3.53
18,LELQRQREAKKRALARKQAQEQLR,3.07
19,LELQRQREAPKRALARKQAQEQLR,4.3
20,LELQRQREAFKRALARKQAQEQLR,3.52
21,LELQRQREAEKRALARKQAQEQLR,4.08
22,LELQRQREAGKRALARKQAQEQLR,4.26
23,LELQRQREACKRALARKQAQEQLR,3.43
24,LELQRQREADKRALARKQAQEQLR,4.38

row,Variant,protein stability index
1,LELQRQREAHKRALARKQAQEQLR,3.79
2,LELQRQREANKRALARKQAQEQLR,4.28
3,LELQRQREALKRALARKQAQEQLR,3.62
4,LELQRQRSARKRALARKQAQEQLR,3.62
5,LELQRQRVARKRALARKQAQEQLR,3.39
6,LELQRQRTARKRALARKQAQEQLR,4.06
7,LELQRQRFARKRALARKQAQEQLR,3.24
8,LELQRQRYARKRALARKQAQEQLR,3.46
9,LELQRQRCARKRALARKQAQEQLR,3.64
10,LELQRQRPARKRALARKQAQEQLR,3.67
11,LELQRQRAARKRALARKQAQEQLR,3.99
12,LELQRQRWARKRALARKQAQEQLR,3
13,LELQRQRRARKRALARKQAQEQLR,4.26
14,LELQRQRIARKRALARKQAQEQLR,2.38
15,LELQRQRLARKRALARKQAQEQLR,2.98
16,LELQRQRHARKRALARKQAQEQLR,3.83
17,LELQRQRQARKRALARKQAQEQLR,3.71
18,LELQRQRNARKRALARKQAQEQLR,3.44
19,LELQRQRGARKRALARKQAQEQLR,3.66
20,LELQRQRKARKRALARKQAQEQLR,3.95
21,LELQRQRMARKRALARKQAQEQLR,3.43
22,LELQRQRDARKRALARKQAQEQLR,3.81
